# Earlier results as cited in paper PMC2924770.
# Where two headings read alike, the source gives them in different places.
# Tests used:
# [1] = biological target: hemoglobin (Homo sapiens) (UniProt P69905)
# [2] = biological target: hemoglobin (Homo sapiens) (UniProt P69905); remark: listed apart in the source
Substance,Kd [1],Kd [2]
Kgp (from UniProt B2RLK2),3.92 nM,–
RgpA (from UniProt P28784),–,3.72 nM
